The source of these data is patent publication US20190300590A1 (PROTAGONIST THERAPEUTICS, published 2019).

Where two headings read alike, the source gives them in different places. Bridges are numbered along the chain shown (N, C = ends). [ ]: non-standard residue; d: D form. Phe(3,4-(OMe)2) = COc1ccc(C[C@H](N)C(=O)O)cc1OC; 1Nal = N[C@@H](Cc1cccc2ccccc12)C(=O)O; 2Nal = N[C@@H](Cc1ccc2ccccc2c1)C(=O)O; AEF = NCCOc1ccc(C[C@H](N)C(=O)O)cc1; Cit = NC(=O)NCCC[C@H](N)C(=O)O; αMeL = CC(C)C[C@](C)(N)C(=O)O; αMeK = C[C@](N)(CCCCN)C(=O)O; Abu = CC[C@H](N)C(=O)O; AEA = NCCOCC(=O)O; βAla = NCCC(=O)O

For assay [1], the target named is T1, Rat IL-23R_huFC (rat; human, UniProt F1LX96 39-369).
T1 sequence: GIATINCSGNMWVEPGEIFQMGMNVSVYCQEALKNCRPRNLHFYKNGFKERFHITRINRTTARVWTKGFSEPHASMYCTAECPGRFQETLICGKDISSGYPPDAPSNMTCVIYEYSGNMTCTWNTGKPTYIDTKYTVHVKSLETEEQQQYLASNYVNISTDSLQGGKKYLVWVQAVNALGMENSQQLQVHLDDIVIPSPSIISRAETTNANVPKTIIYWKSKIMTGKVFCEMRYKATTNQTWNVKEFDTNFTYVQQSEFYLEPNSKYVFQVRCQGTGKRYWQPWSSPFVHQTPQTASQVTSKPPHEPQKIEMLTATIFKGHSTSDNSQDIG
The assay is described as follows: rat IL-23R competitive ELISA.

For a further assay, the target named is T2, IL-23R on DB cells (human, UniProt Q5VWK5 24-629).
T2 sequence (looked up): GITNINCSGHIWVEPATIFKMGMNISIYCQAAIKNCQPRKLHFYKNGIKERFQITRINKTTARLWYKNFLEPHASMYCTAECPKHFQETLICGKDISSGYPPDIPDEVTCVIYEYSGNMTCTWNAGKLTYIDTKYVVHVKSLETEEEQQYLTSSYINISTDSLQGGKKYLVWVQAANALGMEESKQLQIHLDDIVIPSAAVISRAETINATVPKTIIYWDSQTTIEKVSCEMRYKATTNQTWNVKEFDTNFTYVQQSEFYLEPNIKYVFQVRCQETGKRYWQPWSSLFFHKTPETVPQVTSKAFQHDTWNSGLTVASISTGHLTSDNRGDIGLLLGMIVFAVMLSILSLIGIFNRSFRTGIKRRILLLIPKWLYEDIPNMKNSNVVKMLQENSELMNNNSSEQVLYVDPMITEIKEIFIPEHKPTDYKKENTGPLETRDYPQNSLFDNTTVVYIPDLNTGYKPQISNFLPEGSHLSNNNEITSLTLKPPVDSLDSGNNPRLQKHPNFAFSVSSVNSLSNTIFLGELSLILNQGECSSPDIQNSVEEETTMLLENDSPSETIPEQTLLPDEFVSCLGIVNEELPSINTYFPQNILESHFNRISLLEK
The assay is described as follows: cell-based or functional assay.

In assay [2] the target is Rat IL-23R_huFC (rat). The assay is described as follows: rat ELISA vs IL-23.
Assay [3] concerns the target T3, IL-23R on human cells (IL-23R-expressing DB cells; human NK cells) (human, UniProt Q5VWK5 24-629).
T3 sequence (looked up): T2 sequence (looked up)
The assay can be described thus: cell-based or functional assay.

Assay [4] concerns the target Rat IL-23R_huFC (rat). The assay is described as follows: rat ELISA vs IL-23. The source holds these as a separate data set.
In assay [5] the target is T3, IL-23R on human cells …. The assay is described as follows: cell-based or functional assay. The source holds these as a separate data set.
Assay [6] addresses Rat IL-23R_huFC (rat). The assay is described as follows: rat ELISA vs IL-23. The source holds these as a separate data set.
Assay [7] addresses T4, IL23R_huFC (human, UniProt Q5VWK5 24-353).
T4 sequence (looked up): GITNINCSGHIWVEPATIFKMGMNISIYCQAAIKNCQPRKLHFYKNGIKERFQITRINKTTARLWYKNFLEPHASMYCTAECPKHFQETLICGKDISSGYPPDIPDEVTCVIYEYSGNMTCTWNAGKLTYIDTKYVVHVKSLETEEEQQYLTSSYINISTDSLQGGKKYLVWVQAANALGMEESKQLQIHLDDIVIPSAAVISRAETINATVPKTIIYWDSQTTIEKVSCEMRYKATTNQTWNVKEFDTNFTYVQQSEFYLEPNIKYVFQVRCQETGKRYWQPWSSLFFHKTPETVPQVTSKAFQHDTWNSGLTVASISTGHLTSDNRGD
The assay can be described thus: human ELISA vs IL-23.

For assay [8], the target named is T4, IL23R_huFC. The assay is described as follows: human ELISA vs IL-23. The source holds these as a separate data set.

In the assay with Rat IL-23R_huFC [1], Ac-CRTWQCYWREYGA[dK]-NH2 (cysteine pairing not given here) [Ac-CRTWQCYWREYGA-[(D)Lys]-NH2] came in with an IC50 of 80 nM.

B1: [Ac-[Pen]-NTWQ-[Pen]-[Phe(4-CONH2)]-[2-Nal]-[Aib]-KNN-NH2]2DIG (peptide)
peptide: XNTWQXFXXKNN
modifications: Ac; Pen-Pen disulfide; Phe(4-CONH2); 2-Nal; Aib; NH2; DIG linker joins the two subunits
For B1, the “pStat3 HTRF IC50” value in the assay with IL-23R on DB cells is < 10 nM.

As to CXTWQCYWRVFGXK (Ac-; [Cit]; [AEA]; [(D)Lys]; -NH2) [Ac-C-[Cit]-TWQCYWRVFG-[AEA]-[(D)Lys]-NH2], the IC50 in the assay with Rat IL-23R_huFC [1] worked out at 76 nM.

B2: [Ac-[Pen]-NTWQ-[Pen]-[Phe(4-OMe)]-[2-Nal]-[α-MeLeu]-KNN-NH2]2DIG (peptide)
peptide: XNTWQXFXLKNN
modifications: Ac; Pen-Pen disulfide; Phe(4-OMe); 2-Nal; α-MeLeu; NH2; DIG linker joins the two subunits
Take B2: the “pStat3 HTRF IC50” value in the assay with IL-23R on DB cells is < 10 nM.

In the assay with Rat IL-23R_huFC [1], CXTWQCYWRVFGXK (Ac-; [AEA]; [(D)Lys]; -NH2) [Ac-C-CYWRVFG-[AEA]-[(D)Lys]-NH2, listing 1 of 2 here] displayed an IC50 of 100 nM.

Ac-[dF][Abu]QTWQC[AEF][2Nal][αMeK]ENN-NH2 (thioether 2-7) [Ac-[(D)Phe]-Cyclo-[[Abu]-QTWQC]-[Phe[4-(2-aminoethoxy)]]-[2-Nal]-[α-MeLys]-ENN-NH2]: in the assay with Rat IL-23R_huFC [2], the half-maximal inhibitory concentration (IC50) is < 10 nM. The “NK cell assay IC50 (IFNγ)” value in [3] is < 25 nM.

B3: [Ac-[Pen]-NTWQ-[Pen]-[Phe(4-CONH2)]-[2-Nal]-[Achc]-KNN-NH2]2DIG (peptide)
peptide: XNTWQXFXXKNN
modifications: Ac; Pen-Pen disulfide; Phe(4-CONH2); 2-Nal; Achc; NH2; DIG linker joins the two subunits
Take B3: the “pStat3 HTRF IC50” value with IL-23R on DB cells was < 10 nM.

In the assay with Rat IL-23R_huFC [4], Ac-CRTWQ[Abu]YWRKFG[AEA][dK]-NH2 (thioether 1-6) [Ac-Cyclo-[CRTWQ-[Abu]]-YWRKFG-[AEA]-[(D)Lys]-NH2] showed a half-maximal inhibitory concentration (IC50) of 100 to 1000 nM.

In the assay with Rat IL-23R_huFC [1], Ac-CADWVCY[1Nal][Cit]VFG[βAla][dK]-NH2 (disulfide 1-6 (inferred)) [Ac-CADWVCY-[1-Nal]-[Cit]-VFG-[β-Ala]-[(D)Lys]-NH2] gave a 50% inhibitory concentration (IC50) of 22 nM.

Ac-CADWVCYWRKFG[βAla][dK]-NH2 (cysteine pairing not given here) [Ac-CADWVCYWRKFG-[βAla]-[(D)Lys]-NH2] showed a half-inhibitory concentration (IC50) with Rat IL-23R_huFC [1] of 33 nM.

On to Ac-CQTWQCYWRVFG[AEA][dK]-NH2 (disulfide 1-6 (inferred)) [Ac-CQTWQCYWRVFG-[AEA]-[(D)Lys]-NH2], for which the IC50 with Rat IL-23R_huFC [1] turned out to be 62 nM.

Consider CRTWQCYWRVFGXK (not fully specified; Ac-; [N-MeArg]; [AEA]; [(D)Lys]; -NH2) [Ac-C-[N-MeArg]-TWQCYWRVFG-[AEA]-[(D)Lys]-NH2], for which the 50% inhibitory concentration (IC50) with Rat IL-23R_huFC [1] worked out at 192 nM.

B4: [Ac-[Pen]-NTWQ-[Pen]-[Phe(4-CONH2)]-[2-Nal]-[α-MeLeu]-KNN-NH2]2DIG (peptide)
peptide: XNTWQXFXLKNN
modifications: Ac; Pen-Pen disulfide; Phe(4-CONH2); 2-Nal; α-MeLeu; NH2; DIG linker joins the two subunits
As for B4, the “pStat3 HTRF IC50” value with IL-23R on DB cells is < 10 nM.

Take Ac-[Abu]QTWQC[AEF][Phe(3,4-(OMe)2)][αMeK]K(Ac)NG-NH2 (thioether 1-6) [Ac-Cyclo-[[Abu]-QTWQC]-[Phe[4-(2-aminoethoxy)]]-[Phe(3,4-OMe2]-[α-MeLys]-[Lys(Ac)]-NG-NH2]: the “pStat3 HTRF IC50” value in assay [5] is < 10 nM. For the same molecule, the “NK cell assay IC50 (IFNγ)” value in [3] is < 25 nM. Moreover, the half-inhibitory concentration (IC50) with Rat IL-23R_huFC [6] was in the range of 25 to 100 nM; with IL23R_huFC [7] it was 10 to 25 nM.

Regarding Ac-[Abu]QTWQC[AEF][2Nal][αMeL][Cit]NN-NH2 (thioether 1-6) [Ac-Cyclo-[[Abu]-QTWQC]-[Phe[4-(2-aminoethoxy)]]-[2-Nal]-[α-MeLeu)-[Cit]-NN-NH2], the IC50 in the assay with Rat IL-23R_huFC [2] and with IL23R_huFC [8] was < 10 nM each time. In addition, the “pStat3 HTRF IC50” value in assay [5] is < 10 nM. Also, in [3], the “NK cell assay IC50 (IFNγ)” value is < 25 nM.

B5: [Ac-[Pen]-NTWQ-[Pen]-[Phe(4-OMe)]-[2-Nal]-[Achc]-KNN-NH2]2DIG (peptide)
peptide: XNTWQXFXXKNN
modifications: Ac; Pen-Pen disulfide; Phe(4-OMe); 2-Nal; Achc; NH2; DIG linker joins the two subunits
Regarding B5, the “pStat3 HTRF IC50” value in the assay with IL-23R on DB cells is < 10 nM.

Turning to CXTWQCYWRVFGXK (Ac-; [AEA]; [(D)Lys]; -NH2) [Ac-C-CYWRVFG-[AEA]-[(D)Lys]-NH2, listing 2 of 2 here], the IC50 with Rat IL-23R_huFC [1] was determined as 51 nM.
